Patent US20240392040A1 (AKESO HUIKE SHANGHAI, published 2024)
Values belong to the binder of their own block, whether it stands above or below them.

Experiments:
[1] = target: T1, PD-1 on 293T-PD1 membrane surface (full-length human PD-1 on cells) (human, UniProt Q15116 25-288); experiment: flow cytometry on 293T-PD1 cells
T1 construct: whole, on cells; the Promega PD-1 effector cells are bought; also called CHO-K1-PD1 cells
Description: 100 μL of 1% PBSA was then added to each well, and the mixture was centrifuged at 350×g for 5 min, followed by removal of the supernatant. […] The mixture was mixed gently and uniformly, and then incubated on ice for 1 h. 100 μL of 1% PBSA was added to each well, and the mixture was centrifuged at 350×g for 5 min, followed by removal of the supernatant. Then the plate was washed twice with 200 μL of 1% PBSA. […] The mixture was mixed well and then incubated on ice in the dark for 0.5 h. 100 μL of 1% PBSA was added to each well, and the mixture was centrifuged at 350×g for 5 min, followed by removal of the supernatant. Then the plate was washed twice with 200 μL of 1% PBSA. 400 μL of 1% PBSA was added to each well to resuspend the cell pellets, and the mixture was transferred to a flow cytometry tube for FACSCalibur assay.

human PD-1-mFc = target: T2, human PD-1-mFc (human, UniProt Q15116 25-170, limits assumed); experiment: indirect ELISA, coated human PD-1-mFc
T2 construct: not shown: mouse IgG Fc (mFc)
T2 sequence (Q15116 25-170 limits assumed): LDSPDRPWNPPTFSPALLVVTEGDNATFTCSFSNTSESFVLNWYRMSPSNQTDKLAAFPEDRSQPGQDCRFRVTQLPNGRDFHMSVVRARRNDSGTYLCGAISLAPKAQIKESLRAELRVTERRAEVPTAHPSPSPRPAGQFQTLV
Description: Then the ELISA plate coated with the antigen was washed once with PBST and then blocked with a PBS solution containing 1% BSA as a blocking solution at 37° C. for 2 h. After blocking, the ELISA plate was washed 3 times with PBST. The ELISA plate containing the test antibodies was incubated at 37° C. for 30 min and then washed 3 times with PBST.
(§1) After incubation, the plate was washed 4 times with PBST, TMB (Neogen, 308177) was added for chromogenesis in the dark for 5 min, and then a stop solution was added to terminate the chromogenic reaction. The ELISA plate was put into an ELISA plate reader immediately, and the OD value of each well in the ELISA plate was read at 450 nm. The data were analyzed and processed by SoftMax Pro 6.2.1.

[2] = target: T1, PD-1 on 293T-PD1 membrane surface …; experiment: competitive flow cytometry on 293T-PD1 cells, competitor PDL-1-mFc 20 nM
Description: 1. […] 100 μL of 1% PBSA was then added to each well, and the mixture was centrifuged and washed. […] 100 μL of a 400-fold diluted FITC goat anti-mouse IgG/IgM antibody (BD, Cat. No. 555988) was added, while 100 μL of 1% PBSA was added for a blank sample. The mixture was mixed well, incubated on ice in the dark for 30 min, washed, and centrifuged. The cells were resuspended and then transferred to a sample loading tube for testing on a flow cytometer.

human PD-1-mFc-Biotin = target: T3, human PD-1-mFc-Biotin (human, UniProt Q15116 25-170, limits assumed, biotin label (site not stated)); experiment: competitive ELISA, blocking of PD-1-mFc-Biotin binding to coated human PDL1-mFc
T3 construct: not shown: mouse IgG Fc (mFc)
T3 sequence (Q15116 25-170 limits assumed): as above
Description: After incubation, the ELISA plate was blocked with a PBS solution containing 1% BSA at 37° C. for 2 h. After blocking, the plate was washed three times and dried. The antibody was serially diluted on a dilution plate in a 3-fold dilution ratio to achieve 7 concentrations with 80 nM as the starting concentration (at a final concentration of 40 nM), and a blank control was set. […] Then the mixture was incubated at room temperature for 10 min. Then the mixture after reaction was added to the coated ELISA plate, and the ELISA plate was incubated at 37° C. for 30 min. After incubation, the plate was washed three times with PBST and dried. An SA-HRP (KPL, 14-30-00) working solution was added, and the plate was incubated at 37° C. for 30 min. After incubation, the plate was washed four times and dried. Then TMB (Neogen, 308177) was added in the dark for chromogenesis for 5 min, and then a stop solution was added to terminate the chromogenic reaction. The ELISA plate was put into an ELISA plate reader immediately, and the OD value of each well in the ELISA plate was read at 450 nm. The data were analyzed and processed by SoftMax Pro 6.2.1.

human LAG3-mFc = target: T4, human LAG3-mFc (human, UniProt P18627 23-450, limits assumed); experiment: indirect ELISA, coated human LAG3-mFc
T4 construct: not shown: mouse IgG Fc (mFc)
T4 sequence (looked up): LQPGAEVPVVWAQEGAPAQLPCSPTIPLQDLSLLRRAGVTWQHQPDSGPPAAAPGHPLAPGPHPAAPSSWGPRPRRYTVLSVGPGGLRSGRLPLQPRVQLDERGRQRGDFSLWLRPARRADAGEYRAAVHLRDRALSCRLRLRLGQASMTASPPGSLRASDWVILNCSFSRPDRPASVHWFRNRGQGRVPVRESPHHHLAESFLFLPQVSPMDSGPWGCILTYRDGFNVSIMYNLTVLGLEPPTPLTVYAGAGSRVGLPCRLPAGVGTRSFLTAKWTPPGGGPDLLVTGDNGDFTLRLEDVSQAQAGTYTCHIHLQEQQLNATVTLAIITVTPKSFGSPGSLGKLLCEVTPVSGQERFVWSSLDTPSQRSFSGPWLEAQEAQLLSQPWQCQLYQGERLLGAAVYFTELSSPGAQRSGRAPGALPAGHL
Description: as §1, with “Then the ELISA plate coated with the antigen was washed once with PBST and then blocked with a PBS solution containing 1% BSA as a blocking solution at 37° C. for 2 h. After blocking, the ELISA plate was washed 3 times with PBST. The ELISA plate containing the test antibodies was incubated at 37° C. for 30 min and then washed 3 times with PBST. […] After” for “After”

T1 sequence (Q15116 25-288): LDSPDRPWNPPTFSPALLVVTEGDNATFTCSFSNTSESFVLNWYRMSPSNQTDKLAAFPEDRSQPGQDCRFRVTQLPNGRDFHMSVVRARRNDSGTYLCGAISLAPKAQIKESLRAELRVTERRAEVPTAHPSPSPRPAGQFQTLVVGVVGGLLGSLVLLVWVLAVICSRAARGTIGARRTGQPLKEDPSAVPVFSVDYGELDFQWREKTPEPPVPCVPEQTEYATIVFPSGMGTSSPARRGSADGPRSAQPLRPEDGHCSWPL

EC50 [1]: 5.35 nM
EC50 (human PD-1-mFc): 0.02 nM
EC50 [2]: 2.51 nM
EC50 (human PD-1-mFc-Biotin): 2.61 nM
B1: 14C12H1L1(hG1TM) (antibody, human IgG1, kappa, V domains shown)
VH: EVQLVESGGGLVQPGGSLRLSCAASGFAFSSYDMSWVRQAPGKGLDWVATISGGGRYTYYPDSVKGRFTISRDNSKNNLYLQMNSLRAEDTALYYCANRYGEAWFAYWGQGTLVTVSS
VL: DIQMTQSPSSMSASVGDRVTFTCRASQDINTYLSWFQQKPGKSPKTLIYRANRLVSGVPSRFSGSGSGQDYTLTISSLQPEDMATYYCLQYDEFPLTFGAGTKLELKR
notes: Humanized anti-PD-1 IgG1 with L234A, L235A, G237A (EU numbering)

EC50 (human PD-1-mFc): 0.046 nM
EC50 (human LAG3-mFc): 0.377 nM
EC50 (human PD-1-mFc-Biotin): 2.98 nM
B2: BS-PL023C (bispecific antibody, human IgG1, kappa)
heavy: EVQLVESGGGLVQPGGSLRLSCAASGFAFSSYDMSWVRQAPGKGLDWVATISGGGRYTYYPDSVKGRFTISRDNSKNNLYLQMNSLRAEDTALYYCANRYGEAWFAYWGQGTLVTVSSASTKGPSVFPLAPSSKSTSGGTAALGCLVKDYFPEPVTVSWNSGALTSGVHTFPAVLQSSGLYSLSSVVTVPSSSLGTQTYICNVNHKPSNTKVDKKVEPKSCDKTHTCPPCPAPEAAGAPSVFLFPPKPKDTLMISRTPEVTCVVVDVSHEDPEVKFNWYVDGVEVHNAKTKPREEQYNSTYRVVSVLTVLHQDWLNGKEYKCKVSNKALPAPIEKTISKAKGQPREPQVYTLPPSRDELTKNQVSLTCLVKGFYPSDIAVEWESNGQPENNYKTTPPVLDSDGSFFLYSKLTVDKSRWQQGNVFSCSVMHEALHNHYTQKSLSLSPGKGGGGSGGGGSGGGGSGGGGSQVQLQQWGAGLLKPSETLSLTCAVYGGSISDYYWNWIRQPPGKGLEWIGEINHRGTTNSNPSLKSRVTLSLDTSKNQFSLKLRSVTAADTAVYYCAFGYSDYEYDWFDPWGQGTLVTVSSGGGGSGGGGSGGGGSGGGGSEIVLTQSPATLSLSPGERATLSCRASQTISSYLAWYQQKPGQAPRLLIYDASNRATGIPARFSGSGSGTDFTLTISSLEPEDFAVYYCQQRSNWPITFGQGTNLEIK
light: DIQMTQSPSSMSASVGDRVTFTCRASQDINTYLSWFQQKPGKSPKTLIYRANRLVSGVPSRFSGSGSGQDYTLTISSLQPEDMATYYCLQYDEFPLTFGAGTKLELKRTVAAPSVFIFPPSDEQLKSGTASVVCLLNNFYPREAKVQWKVDNALQSGNSQESVTEQDSKDSTYSLSSTLTLSKADYEKHKVYACEVTHQGLSSPVTKSFNRGEC
notes: Morrison form (IgG-scFv): an scFv at the C-terminus of each of the two heavy chains

EC50 [1]: 6.87 nM
EC50 (human PD-1-mFc): 0.103 nM
EC50 (human LAG3-mFc): 0.685 nM
EC50 (human PD-1-mFc-Biotin): 5.04 nM
B3: Bs-PLV02 (bispecific antibody, human IgG4 S228P, kappa, F234A L235A)
heavy: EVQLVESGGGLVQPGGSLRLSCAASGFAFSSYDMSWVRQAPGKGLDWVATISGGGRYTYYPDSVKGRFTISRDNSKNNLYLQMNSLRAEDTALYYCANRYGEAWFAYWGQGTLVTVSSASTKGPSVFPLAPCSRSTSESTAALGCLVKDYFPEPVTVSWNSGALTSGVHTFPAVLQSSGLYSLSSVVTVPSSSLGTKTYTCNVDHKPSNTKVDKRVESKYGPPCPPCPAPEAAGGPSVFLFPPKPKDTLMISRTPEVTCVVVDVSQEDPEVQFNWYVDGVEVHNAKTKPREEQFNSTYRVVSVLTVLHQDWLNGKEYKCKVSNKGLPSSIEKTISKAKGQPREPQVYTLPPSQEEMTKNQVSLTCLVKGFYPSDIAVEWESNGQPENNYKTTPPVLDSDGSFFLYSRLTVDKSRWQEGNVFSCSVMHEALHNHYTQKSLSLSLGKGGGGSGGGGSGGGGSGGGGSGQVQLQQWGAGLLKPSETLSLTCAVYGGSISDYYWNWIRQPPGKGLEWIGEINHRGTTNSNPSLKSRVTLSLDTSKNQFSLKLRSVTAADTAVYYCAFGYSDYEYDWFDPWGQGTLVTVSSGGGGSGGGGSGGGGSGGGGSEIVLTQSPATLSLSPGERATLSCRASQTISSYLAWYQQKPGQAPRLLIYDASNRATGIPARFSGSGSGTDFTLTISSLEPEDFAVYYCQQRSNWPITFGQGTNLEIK
light: B2 light
notes: as for B2
